In paper PMC6853979, “Structures of GapR reveal a central channel which could accommodate B-DNA”:
Values belong to the molecule of their own block, whether it stands above or below them.

Assays:
[1] = target: GapR (full length, Caulobacter crescentus) (Caulobacter crescentus); experiment: SEC-MALS; 50 μl of GapR at 0.5 mM (calculated as tetramer), no DNA, Superdex-200 Increase 10 300 GL, SEC buffer (20 mM HEPES pH 7.4, 200 mM NaCl, 0.2 mM TCEP)
[2] = target: GapR (full length, Caulobacter crescentus) (Caulobacter crescentus); experiment: crystal structure; GapR or GapRΔ1-11 crystallised with 19-bp dsDNA (DNA not seen in the maps), sitting drop, room temperature, ammonium sulfate and PEG 3350; tetramer formed by crystallographic symmetry
[3] = target: GapR (full length, Caulobacter crescentus) (Caulobacter crescentus); experiment: SEC; 6.25 μM protein (calculated as tetramer); GapR without and with 20 μM 19 bp DNA on Superdex 200 Increase 10 300 GL; GapR and GapR6KtoE on HiLoad 16/600 Superdex 200 pg against protein standards
[4] = target: GapRΔ1-11 (Caulobacter crescentus); experiment: crystal structure; GapR or GapRΔ1-11 crystallised with 19-bp dsDNA (DNA not seen in the maps), sitting drop, room temperature, ammonium sulfate and PEG 3350; tetramer formed by crystallographic symmetry
GapR = target: T1, GapR (Caulobacter crescentus, UniProt Q9A385 1-89); experiment: EMSA; 0.425 uM tetramer, 1.7 uM DNA; EMSA: 10 mM Tris pH 7.5, 50 mM NaCl, 1 mM EDTA; 8% gel in 0.5x TBE pH 8.3 at 4 C; conditions: protein: recombinant; tags: N-terminal His8 cleaved by TEV (vector residues may remain); chain copies: 4; blunt
T1 sequence: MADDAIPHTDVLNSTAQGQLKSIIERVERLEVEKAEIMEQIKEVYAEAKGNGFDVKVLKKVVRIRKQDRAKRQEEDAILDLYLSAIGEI

stoichiometry N [1]: 4 | stoichiometry N [2]: 4 | stoichiometry N [3]: 4
Molecule: GapR (full length, Caulobacter crescentus) (natural protein)

stoichiometry N [4]: 4
Molecule: GapRΔ1-11 (domain or fragment)

B1: 19 bp oligonucleotide (19mer) (dsDNA)
DNA 1: GTTAAGCAACCGTTAACGG
DNA 2: CCGTTAACGGTTGCTTAAC
binding result (GapR): binds
